Columns and labels:
[1] = target: T1, SARS-CoV-2 S protein, C-terminally truncated (pSARS-CoV2-S_trunc), ancestral, on 293T cells (SARS-CoV-2 ancestral (Wuhan), UniProt P0DTC2); experiment: flow cytometry on cells
[2] = target: T1, SARS-CoV-2 S protein, C-terminally …; experiment: cell-based or functional assay
[3] = target: SARS-CoV-2 fusion peptide (FP) peptide 812…831 (SARS-CoV-2 ancestral, Biotin-Ahx at the N-terminus; C-terminal amidation); experiment: crystal structure

Binder	fold increase of binding with soluble ACE2 [1] [fold]	IC50 of neutralisation of SARS-CoV-2 pseudovirus (ancestral) [2] [µg/mL]	binding result [3]
fp.006 monoclonal antibody (IgG) (antibody, V domains shown) VH: EVQLVESGGGVVQPGGSLRLSCAASGFNFNNYALHWVRQAPGKGLEWVAIISYEARNKKYGVSVMGRFSISRDNSKSIMYLEMNSLRVEDTGVYYCARDLFLSDYDRSGYDPTRGGFDHWGQGTLVTVSS VL: EIVMTQSPATLSVSPGERATLSCRASQSVSSSLAWYQHRFGQAPRLLISGASTRATGIPGRFSGSGSGTEFTLTISSLQSEDVAVYYCQQYGDWPLVTFGGGTKVEIK	5.8	0.737	
fp.006 Fab (Fab, V domains shown) VH: EVQLVESGGGVVQPGGSLRLSCAASGFNFNNYALHWVRQAPGKGLEWVAIISYEARNKKYGVSVMGRFSISRDNSKSIMYLEMNSLRVEDTGVYYCARDLFLSDYDRSGYDPTRGGFDHWGQGTLVTVSS VL: EIVMTQSPATLSVSPGERATLSCRASQSVSSSLAWYQHRFGQAPRLLISGASTRATGIPGRFSGSGSGTEFTLTISSLQSEDVAVYYCQQYGDWPLVTFGGGTKVEIK			binds
sd1.040 monoclonal antibody (IgG) (antibody, V domains shown) VH: QVQLVQSGAEVKKPGASVKVSCKASGYTFTSFYIHWVRQAPGQGLEWMGIIDPSGGSTSYPQKFQGRVTMTRDTSTSTVYMDLSSLRSEDTAVYYCTRDGSAGDNSWFDPWGQGTLVTVSS VL: not shown		0.245	

— article PMC9727766 (bioRxiv, 2022)
